Data reported in the DeepSol protein solubility set.

Assay: soluble on expression in E. coli; label from the status in PepcDB or PDB records

| Sequence | soluble on expression in E. coli |
| --- | --- |
| MKQLWFAMSLVAASLFFSANASADPASGALLQQMNIASQSLNYELSFVSITKQGVESLRYRHARLDGRPLAQLLQLDGPRREVVQRGNEISYFEPGLEPFTLNGDYIVDSLPSLIYTDFKRLAPYYDFISVGRTRIADRLCEVIRVVARDGTRYSYIVWMDMDTKLPMRVDLLDRDGETLEQFRVIAFTVSQDIGSNMQALAKANLPPLLSVPGGEKTKFNWSPSWVPQGFSEVSSSRRPLPTMDNLPIESRLYSDGLFSFSVNVNRATQNSSDQMLRTGRRTVYSSVRDNAEITIVGELPPQTAKRIADSIKFRAVQ | not soluble |
| MKQSKIIVAGIGPGSEQDITPAVLAAVREADVVVGYKYYFRFIRDFVRPDAECIDTGMKRERARAEQAFEYAEQGKTVCVISSGDAGIYGMTPLIYEMKRERQSNVEIIALPGI | not soluble |
| MKQVSRSALVSFSAEQMFNLVNDVAKYPEFLPGCSGSRIIESSGNGMVASVDVAKAGISKTFTTSNELIPGQAIMMNLVDGPFKTLRGGWIFTALDEQACKVELKLEFEFSSKMIEMAFGKIFNELTSNMVNAFTKRAKQVYECYEYLEHHHHHH | not soluble |
| MKQVTVLLIGLGRMGSRFFDKFVEIGEERVKIVGVCELNEQNPKVLEAKKRNIPLYPSYKEALTDLHESVDIILDTSNISEVKRDIRELLSRQNNQHSVLLPMVADYLLWYMLPNAEEIPQDHTDIGY | not soluble |
| MKREILLERIDKLKQLMPWYVLEYYQSKLAVPYSFTTLYEYLKEYDRFFSWVLESGISNADKISDIPLSVLENMSKKDMESFILYLRERPLLNANTTKQGVSQTTINRTLSALSSLYKYLTEEVENDQGEPYFYRNVMKKVSTKKKKETLAARAENIKQKLFLGDETEGFLTYIDQEHPQQLSNRALSSFNKNKERDLAIIALLLASGVRLSEAVNLDLRDLNLKMMVIDVTRKGCKRDSVNVAAFAKPYLENYLAIRNQRYKTEKTDTALFLTLYRGVPNRIDASSVEKMVAKYSEDFKVRVTPHKLRHTLATRLYDATKSQVLVSHQLGHASTQVTDLYTHIVSDEQKNALDSL | not soluble |
| MKRILIVTGQSGSGKSSALQVLEDLGYYCIDNLPLALLPEIVAKLDHENNLEQLALGVDVRSTRADMQEFDLVFEQLQKHGTVDVIYLTTQDQELIARFSASRRPHPLASRFKSLNECIQEEKQLLLPIQFRSTVHIDTTDKSVHDLKHTLLSKLGQSDKLILILQSFGYKHGIPLDADYVFDVRHLPNPHWDLELRRFSGLDEPVRRFLESSDQTNEMFDDIFHFLDKWLPVFAEGHRHYMTVSIGCTGGQHRSVYIVDRLKKALEAKWSIQVLHREMKHWS | not soluble |
| MKRLWKKVGSGVKNANYLKKSVEEVAKIEKGETKVVPPKYPTEKSREVSEEIKKELAMKNESLVENMNKMYIKSTDPVERWTSTKDLPTRESEFLHRNDPIWEYGFYEPPVERIPKDKLMFKEALEYLRFRQELLSDSSSPAQKKQAAEFVADHVVTSRVNAETLDDIYEYFRPFERKDKQKVVNRHALAALQDHVQGNSDERRILDEAKDVGKKIRHISNNTKFLDEYQRLEDEEKDKVREAIAQLRQEEHERLNKRLGQLGEIEKTAQEAMKKAVEEKKEK | not soluble |
| MKRRRLLQSLLAGLALQPFLAASANVRIRQARAWNSSESWRLVLELDGPPRYRTFSLQAPERLILDLPDAQLLATLSELPLDGPVRAIRSGQLGGGGTRIVLDLRQAVRPRSFALEPQAGKGHRLVLDLYPQALAAPPEPMLALARPLPSTGRDILVVVDAGHGGKDPGAVGSKGEREKDVALAIARLLARRIDREKGFKARLVRNGDVFVPLRKRPEVARRYNADMFVSVHADAAPRLTASGASVYALSEHGASSTMARWMAERENGADLIGNSGNLPLQGRDKVLAGVILDMALSSTIASSLDLGHSVLGQLSDVTALHQKRVEQAGFAVLKSPDIPSILVETGFISNRGDCRRLMDERHRQRLAEAIFAGVQGYFRQRPPAGSYLAALSAQPPG | not soluble |
| MKSAELKYLDFEDFTKLIALAKEKINPIYSSSFMIYIAAMTGMRFSELLGLTWDNVDFEKGQIYVKRTWDIYKNNFAPTKNDQSVRFLAIDSSTMQVMINYKEQQEKLLKRLEIEPEHPFVFYNIKNGLITNNSLNKQLRNMCKKLGFKKIITCHGLRHTHASTMLYKGINILYVSKRLGHSSLNVTMSVYSHILKELEEKDNENIKKIFSEINDELEHHHHHH | soluble |
| MKSKFMIHQIFSNYCSKNTRLHTLLYKTFVRPILEYGTEVSSPLKKQDIKAIESVQNSFTRKLYSRQKGKYIRTDDPDYKSAIQRNELFNLSTLEARRKAIDKVFLSKMLVNKVDIDTDQFFKIDKNSKTRTKTKFIWGKCKTKLRRHFFTNRVLSSIKISAMNLILAPHVLCMFNTFTHYSSP | not soluble |
| MKSSMAMIKHKKELVEYARHLKLPNLAEHVGVILHEAQEKQLTYSEFLANCLAREIQGRERKSYLTRLKLSGLPAKYDLDLYDYDRAEGMDNRRLRELRELVWVNQAYNLLLVGPSGTGKTFIAAGLVYEAVKAGYEAYLMTLEELLTCLKTKEVSAHAMKTYKRIMKARLLAIDDATLFPLKREEAVLLFKLVNDFQERTSLIITANKALTRWLETLEDEAVTAALLDRLLYCCEIIRLGGTSYRMQNRKTIFSNQNTDIGTLEHHHHHH | not soluble |
| MKSVGLITEYNPFHNGHQYHINQSKKLTNADVTIAIMSGNFVMRGEPAIYNKFTRAKMALSTADLVIELPATASLSSGDHFAELAVKVADYMSVDTIAFGSENNDIKTLKQLAHSINEIEQSESFSQKVKEGKSYPRIISELLEHHEALASPNNILGISYLKAIAKNAKNINAISIKRENAQHHDSLIQHHQFASGTSIRTSIISQDDHWHHVVPKDIQHLYVTPHITLNQIFPYLKYQIIAMTTDSLKNIYTVTEGFENRLKSNIYEATDFHHFVKLLKTKRYTYTHIQRLLMNVLLNIKPTDVTSNIHAVKVLAMNDRGRQYLKHLKTAFPERQYITNINKSNAHYFTNEIKATHIYNAISGQQQTDFNTPVIQQYR | not soluble |
| MKSYHKELWMEVPSRMDFVNITRDVSRALDESGIREGLCLVNAMHITASVFINDDEPGLHADYKQWLEELAPHNPSHYQHNRTGEDNGDAHHKRQIMGREVVVAVTKGELHLGPWEQIFYGEFDGRRRKRVLIKIIGALEHHHHHH | soluble |
| MKSYQPKSLLNDLQYYITPPHDCSYLDNKSARMVFLDPIHRIDVVTLSELSRVGFRRSGDFVYRPECHLCRQCLSCRVPVHDFNMNSLQKKAWKRNQDLRMSIVPTHAATSVHYQLYERYINERHADGDMFPPSLDQFEKFLVHSCTESFFLELWKDDRLICVSTCDLMDDGLSAVYTFFDPDENRRSLGVFAILKQLEYVKSIDLDYLYLGYWVPHSQKMNYKSQYIPLELLLDGQWRRLNRALSQEEISQLGESLMTILPSEWNSMIIKLEHHHHHH | not soluble |
| MKTIYLYKAQIPEGKNKGDNAILITNQTVIDKLEKAAKEDGKSGTQVSTIASKSTTKENQENKIIGYTSTDNLREDNKNIFDIDDLNDEKYDRKIIVSATEEVLEQSNTLQSEEAVVLPAPAKYKASDSTKIAITQEPNLIGIHANEKENEETRKFVNW | soluble |
| MKTKNEPKVILELAKESDLPEFQKKLQEAFAIAVIETFGDCEDGPIPSDNDVQESFNAPGAVVYHILQDGKNVGGAVVRINSQTNHNSLDLFYVSPEYHSQGIGLSAWKAIEAQYPDTVLWETVTPYFEKRNINFYVNKCGFHIVEFYNEHHSNPHMHRNGREDDKPLLNDDDFFRFVKIMKKKD | not soluble |
| MKTKQTIAASTLALAMIAGANSAHAEVNDATPQQSTGDRLAEIKQHKQGLDAKLQQHKENVDQTLNELNKVKENVDTKVNELHERKQVADEKINEIKQHKQELDAKLQQDKQIAEDKIAEIKEHKKQVEDKVAEVKEHKQNIDNKVNEIKEHKQTVDEKVNEMKQHKENIDQKVNELKEVKKQVDEKLAELKKAKQTAEDKLAELKENKPNTGNTLEELKKIKSNLDSLSANLELAKQDVKNKLAALQEARQDLINKINEIKQSKQTVSDDLSKKKQDLDIKINDFKHTEKKIDDKLAEIHTTKQNIDNKINEVSQSKQTETKTGTTNANNNARELPNAGSKQSNNMALGMLSVLGGILLVTRNKIKTLFSK | not soluble |
| MKTLSKQDNTMEWLVKKSCCNKQDNRHVLMLCDAGGAIKMIAEVKSDFAVKVGDLLSPLQNALYCINREKLHTVKVLSASCYSPDEWERQCKVAGKTQ | soluble |
| MKTLVHLSDLHFGKTESHLVDAIAAEVRAVDSDLLVVSGDLTQRARKDEFLQARAFLDSLPGPRIVVPGNHDVPLWNVFARAMTPLSRYRRYIEADTDPFYADSEVAVVGINTARSLTIKNGRINVRQLKAATEKFAYMSDDITRIVVTHHPFEGLDLESDDGIVARADLAMDAFSRSGVDIILSGHQHLHRAGSSARRYLIDGYAALLVQAGTAVSSRVRQAANSFNIIRIEHPRISIECRAWQSLQSGFETSASYSFRQGSGGWEPALEHHHHHH | not soluble |
| MKTQQREQALAIYQQHQGKITNRAIADTIGVSAKTIGIWKKQDKWKEALFSASKNEQKQRPINNDELNERQRLFCLYYVKSFNATQSAIKAGYSPDSAHVTGSRLLKNEKVAAEIRRIKKEMVNEMFIEAMDVLQVYIKIAFADITDYVTFGKKEVQAVGKSGPLFDEDDNPIMKEISFVDVKDSGLVDGTIVTEAKLGKEGIAIKLADKMKALEKLSLYFDLFPDQFKQKIENEKLKLAKQKAEKTDDSQEPIEIMIKRKERKS | not soluble |
| MKTRVVLILALSVCIEAASEVIRARAYIFKAEAGKIPTELIGTIDFDQSGSFLKLNGSVSGLAAGKHGFHIHEKGDTGNGCLSAGGHYNPHKLSHGAPDDSNRHIGDLGNIESPASGDTLISVSDSLASLSGQYSIIGRSVVIHEKTDDLGRGTSDQSKTTGNAGSRLACGTIGTV | not soluble |
| MKTSKFTEAQIAFALKQAELGTKVEEVCRKLGISEATFYNWKKKYGGVGPSELRRMRQLEEENTKLKRLVADLSLDKAMLQDVLSKKLAAALEHHHHHH | not soluble |
| MKTTPVTPDDLQRSVIAVPPLARHADLTLNPAANQAVLRHLEAGGVRSVMYGGNANFYHVQVSEYAQLLDFLAESAGPDTWVLPSAGPDYGKLMDQAAILRTRDFPTAMLLPMSFPYTDAGLADGIRRFSDAMDRPAVVYIKSSDYLAPATVARLIGEGRIAALKYAVVREDPARDPYLDALLKEVDPRWIVSGIGERPAIVHFRQFGLRSFTSGSVCVAPRGSMRLLHLLHQGDFEAAEQVRAAYIPLEDCRDGISPIRVLHDAVTLAGVADMGPMLPLLSGLDPADRERVAPVARALLAGDRQ | not soluble |
| MKTWLTTLILSLSTLGLAHADVATTQQNLKKNFPEIPVSAVNTTPVKGVYEVITEGQIVYTNDDAQYFFVGNLVDPKNQRNLTAERMQQLNKIDVSTLPLNQAIKHVKGNGKRTLYIFSDPDCPYCQRLEKELTAVDNVTIYLFLFPLTTLHPNAETIATQIWCSKNQYQAWQDYLLNHKAPTASQKCSTPIQKNLALGQKLNINGTPTMYLKNGERIAGAMQAGQLNTLLDQAQ | not soluble |
| MKVEKFKVLLYLKKSEPDKNGKAPIMGRITLNRTMAQFSCKLSCTPELWNARESRLNGKSRKAVETNEKIERLLLAVHSAFNSLMERKKDFDAAAVRDMFQGNAGIQMTLLKLLDRHNGEMKARVGVDRAPTTLSTYLFTYRTLSEFIKAKFKVSDLAFGQLNEQFIRDYQDFILMEKGHAVDTLRGYLAILKKICRIAYKEGHSEKYHFCHFKLPKQKESTPKALSRENFEKLRDLEIPEKRRSHVITRDLFLFACYTGTAYADVVSITRENLFTDEENNLWLKYRRKKTNYLGRVKLLPEALVLIEKYRDDARMTLFPPQDYHTLRANMKSLRLMAGLSQDLVYHTARHSFASLITLEEGVPIETISKMLGHSNIKTTQIYARVTPKRLFEDMDRFIEATRDLKLIL | not soluble |
